The Kd is the free concentration of one partner at which half of the binding sites on the other are occupied at equilibrium, for simple one-to-one binding. High values mean weaker binding, low ones tighter binding. By koff is commonly meant the first-order rate constant of dissociation. Usually kon stands for the second-order rate constant of association. Read a high kon as fast association.

From patent publication US20210061896A1 (SHANGHAI YILE BIOTECHNOLOGY, published 2021) come the findings set out here.

Ends that are not written are not given here.

In one experiment the target is T1, BSA (UniProt P02769 25-607).
T1 construct: also called negative control protein BSA
T1 sequence (P02769 25-607 limits assumed): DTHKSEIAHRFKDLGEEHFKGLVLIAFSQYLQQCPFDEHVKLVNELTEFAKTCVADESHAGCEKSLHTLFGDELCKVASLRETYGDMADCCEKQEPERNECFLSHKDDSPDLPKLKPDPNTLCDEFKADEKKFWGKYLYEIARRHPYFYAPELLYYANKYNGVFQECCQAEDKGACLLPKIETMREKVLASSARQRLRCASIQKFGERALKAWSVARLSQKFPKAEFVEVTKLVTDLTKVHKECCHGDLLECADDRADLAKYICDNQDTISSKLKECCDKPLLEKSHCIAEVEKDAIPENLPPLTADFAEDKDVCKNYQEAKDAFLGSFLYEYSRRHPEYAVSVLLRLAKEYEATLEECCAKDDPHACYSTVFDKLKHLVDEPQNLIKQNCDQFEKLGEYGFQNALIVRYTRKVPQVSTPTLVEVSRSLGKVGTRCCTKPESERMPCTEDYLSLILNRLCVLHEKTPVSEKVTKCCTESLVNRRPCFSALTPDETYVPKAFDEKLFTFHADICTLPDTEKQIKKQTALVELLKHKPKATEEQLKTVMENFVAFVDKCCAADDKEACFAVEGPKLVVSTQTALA
In words: single-phage ELISA. The method, then:
Ninety-six clones were randomly selected from the fourth round of screening, and single-phage ELISA (enzyme-linked immunosorbent assay) was used to analyze their binding ability to human proBDNF precursors. For this purpose, each single colony was inoculated into 300 μl of 2×YT/ampicillin medium (containing 2% glucose) in a 96-well deep-well culture plate, shaken and cultured at 37° C. and 250 rpm for 16 hours. 20 μl of the culture was inoculated into 500 μl of 2×YT/ampicillin medium (containing 0.1% glucose), and shaken and cultured at 37° C. and 250 rpm for 1.5 hours. For preparing helper phage solution, 75 μl of M13KO7 (titer: 3×10¹² pfu/ml) was taken and mixed into 15 ml of 2×YT medium, added to the culture plate at 50 μl/well, and incubate at 37° C. and 150 rpm for 30 minutes. And then, the prepared kanamycin solution was added at 50 μl/well (180 μl of 50 mg/ml kanamycin was taken and added to 15 ml 2×YT medium), and shaken and cultured at 37° C. and 250 rpm for 16 hours. […]
To perform a single phage ELISA, a 96-well MediSorp ELISA plate (purchased from Nunc) was coated with 100 ng/well antigen human proBDNF precursor and negative control protein BSA (100 μl/well) respectively, overnight at 4° C. […] The extinction value was measured at 450 nm using an enzyme-linked immunoassay device (Bio-Rad).

For experiment [1], the target named is T2, GST-huBDNFpro E4.
T2 construct: also called GST-huBDNFpro-E4 peptide fragment; GST fusion partner and any linker between GST and the peptide not given
T2 chain: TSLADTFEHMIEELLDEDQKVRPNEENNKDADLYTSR
Kind of experiment: ELISA on GST fusion proteins (Example 7), single condition. (In general: In an ELISA, binding on a coated surface is turned into a signal by an enzyme label.)

Experiment [2] has as its target T3, GST-huBDNFpro E1.
T3 construct: also called GST-huBDNFpro-E1 peptide fragment; GST fusion partner and any linker between GST and the peptide not given
T3 chain: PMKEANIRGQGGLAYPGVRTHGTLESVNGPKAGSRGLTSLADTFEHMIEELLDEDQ
Described as above.

In experiment [3] the target is T4, human proBDNF precursor protein (human, UniProt P23560 19-247).
T4 construct: also called human proBDNF precursor recombinant protein
T4 sequence (looked up): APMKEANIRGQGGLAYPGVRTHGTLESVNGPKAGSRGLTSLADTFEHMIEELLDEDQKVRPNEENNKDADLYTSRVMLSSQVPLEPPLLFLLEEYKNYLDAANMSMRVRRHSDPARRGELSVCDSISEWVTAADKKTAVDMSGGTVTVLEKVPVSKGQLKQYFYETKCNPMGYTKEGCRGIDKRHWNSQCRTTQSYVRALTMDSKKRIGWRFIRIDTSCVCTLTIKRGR
In words: SPR, Biacore T200, capture method, antigen 0.25-8 nM. How it is done: The affinity and kinetic parameters of the 1D3 and 2H8 monoclonal antibodies were measured by the capture method using Biacore T200 system (purchased from GE), respectively. The system was manipulated according to the instructions, human proBDNF precursor protein was used at a concentration of 0.25 nM, 0.5 nM, 1 nM, 2 nM, 4 nM, and 8 nM, respectively. The Biacore T200 evaluation software was used to evaluate the resulting action curve and calculate the affinity KD value.
(SPR reads the build-up and loss of mass on a sensor chip optically.)

Experiment [4] has as its target T5, biotinylated LL peptide fragment (human, also: biotinylated (position not given here)).
T5 construct: Synthesized in vitro; 12 amino acids
T5 peptide: LLFLLEEYKNYL
Kind of experiment: ELISA on biotinylated peptide.

In experiment [5] the target is T6, biotinylated VP peptide fragment (human, also: biotinylated (position not given here)).
T6 construct: Synthesized in vitro; 12 amino acids
T6 peptide: VMLSSQVPLEPP
In words: ELISA on biotinylated peptide.

Experiment [6] deals with T5, biotinylated LL peptide fragment. Kind of experiment: ELISA on biotinylated synthetic peptides (Example 8), single condition, concentrations not given.
In experiment [7] the target is T7, biotinylated DH peptide fragment (human, also: biotinylated (position not given here)).
T7 construct: Synthesized in vitro; 12 amino acids; also called polypeptide DH
T7 peptide: DAANMSMRVRRH
The description is as above.

For experiment [8], the target named is T6, biotinylated VP peptide fragment. The experiment is described as above.
Experiment [9] deals with T2, GST-huBDNFpro E4. In words: ELISA on GST fusion proteins (Example 7), single condition, concentrations not given.
A further experiment concerns the target T8, GST-huBDNFpro E3.
T8 construct: fusion tag; also called GST-huBDNFpro-E3 peptide fragment
The experiment is described as above.

The target of experiment [10] is T9, GST-huBDNFpro-E5 peptide fragment (human).
T9 construct: the text speaks of 36 amino acids; also called polypeptide E5; not shown: Glutathione S-transferase (GST) fusion partner
T9 chain: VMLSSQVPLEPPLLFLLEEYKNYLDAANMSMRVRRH
Described as above.

In experiment [11] the target is T10, GST-huBDNFpro-E2 peptide fragment (human, UniProt O18755 76-129 (Procyon lotor entry)).
T10 construct: also called polypeptide E2; not shown: Glutathione S-transferase (GST) fusion partner
T10 sequence: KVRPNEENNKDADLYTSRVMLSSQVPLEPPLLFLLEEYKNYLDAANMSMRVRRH
The description is as above.

A further experiment deals with T11, GST-GPC3.
T11 construct: fusion tag; It appears to be the negative control antigen
The description is as above.

Experiment [12] deals with T12, full length GST-huBDNFpro (human, UniProt P23560 20-129).
T12 construct: GST is placed at the N-terminus by the printed name only; not shown: Glutathione S-transferase (GST) fusion partner
T12 chain: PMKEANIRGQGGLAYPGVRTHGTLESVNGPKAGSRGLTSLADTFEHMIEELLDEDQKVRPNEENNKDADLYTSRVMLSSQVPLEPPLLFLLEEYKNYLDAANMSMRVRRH
The experiment is described as above.

In experiment [13] the target is T3, GST-huBDNFpro E1. The experiment is described as above.

B1: single-chain antibody 2H8 (scFv)
scFv: EVQLVETGGGLVQPGGSLRLSCAASGFTFSSYGMHWVRQAPGKGLEWVSVISGSGDSTYYAESVKGRFTISRDNARNTVYLQMNSLRAEDTAVYYCASGILTGYVFDYWGKGTMVTVSSGGGGSGGGGSGGGGSDVVMTQSPLSLPVTLGQPASISCRSSQSLVSNDGNTYLNWFQQRPGQPPRRLIYMVSKWDSGVPDRFSGSGSGTDFTLRISRVEAEDVGVYYCMQSTHWPPTFGGGTKLEIKR
notes: probably a print error; also called 2H8, scFv; pCantab-2H8
For B1, the binding result in the experiment with BSA is recorded as “no binding (tested: 100 ng/well coated)”.

B2: 2H8 monoclonal antibody (antibody, human IgG4, kappa, V domains shown)
VH: EVQLVETGGGLVQPGGSLRLSCAASGFTFSSYGMHWVRQAPGKGLEWVSVISGSGDSTYYAESVKGRFTISRDNARNTVYLQMNSLRAEDTAVYYCASGILTGYVFDYWGKGTMVTVSS
VL: DVVMTQSPLSLPVTLGQPASISCRSSQSLVSNDGNTYLNWFQQRPGQPPRRLIYMVSKWDSGVPDRFSGSGSGTDFTLRISRVEAEDVGVYYCMQSTHWPPTFGGGTKLEIKR
notes: also called recombinant monoclonal antibody 2H8 (human IgG1 type)
As for B2, the binding result (in the experiment with GST-huBDNFpro E4 [1]; with GST-huBDNFpro E1 [2]; in experiment [4]; in experiment [5]) was “no binding” in each case. This molecule also showed a Kd in experiment [3] of 1.91 nM. This molecule also showed a koff in [3] of 0.00594 s⁻¹. Further, the kon in [3] was 3.1e+06 M⁻¹ s⁻¹. Moreover, the OD450nM in experiment [6] was 0.0115; in experiment [7], 0.831; in [8] it was 0.0104; in the experiment with GST-huBDNFpro E4 [9], 0.0089; with GST-huBDNFpro E3, 0.0144; in [10], 1.06. Further, the OD450nM in experiment [11] was 0.962; with GST-GPC3, 0.05; in experiment [12], 0.758; with GST-huBDNFpro E1 [13], 0.015.

B3: single-chain antibody 1D3 (scFv)
scFv: QVQLVESGGGLIQPGGSMRLSCAASGFSLSGYDMHWVRQIAGKGLEWVAGLGMEGDSYYSASVKGRFTISRQDAKNSLYLEMKDLGGGDTAVYYCLRDVHGFDVWGQGTTVTVSSGGGGSGGGGSGGGGSDVVMTQSPLSLPVTPGEPASISCRSSQSLLYSNGYTYLDWYLQRPGQSPQLLIYMGSNRASGVPDRFSGSGSGTDFTLKISRVEAEDVGVYYCMQALQTPLTFGGGTKLEIKR
notes: also called 1D3, scFv; pCantab-1D3
In the case of B3, the binding result with BSA was “no binding (tested: 100 ng/well coated)”.

B4: 1D3 monoclonal antibody (antibody, human IgG4, kappa, V domains shown)
VH: QVQLVESGGGLIQPGGSMRLSCAASGFSLSGYDMHWVRQIAGKGLEWVAGLGMEGDSYYSASVKGRFTISRQDAKNSLYLEMKDLGGGDTAVYYCLRDVHGFDVWGQGTTVTVSS
VL: DVVMTQSPLSLPVTPGEPASISCRSSQSLLYSNGYTYLDWYLQRPGQSPQLLIYMGSNRASGVPDRFSGSGSGTDFTLKISRVEAEDVGVYYCMQALQTPLTFGGGTKLEIKR
notes: also called recombinant monoclonal antibody 1D3 (human IgG1 type); Ab-proBDNF (1D3)
B4: the binding result (with GST-huBDNFpro E4 [1]; with GST-huBDNFpro E1 [2]; in experiment [4]; in experiment [5]) was “no binding” throughout. The OD450nM in [6] was found to be 0.0167; in experiment [7] it was 1.7; in experiment [8], 0.0122; with GST-huBDNFpro E4 [9] it was 0.0081; with GST-huBDNFpro E3, 0.0245; in experiment [10], 0.979. Also, the OD450nM in experiment [11] is 0.914; with GST-GPC3, 0.0577; in experiment [12] it was 0.625; with GST-huBDNFpro E1 [13] it was 0.0114.
